Laboratory results from article PMC4570534.

Target: WT‐EsxB (Bacillus anthracis)
Assay: SEC

WT‐EsxB (natural protein) gave a stoichiometry N of 4.
